Key:
PPARg:RXRa = PPARg:RXRa (Homo sapiens, UniProt P37231;P19793 full;full); assay: no ligand; PBM; 180 nM : 90 nM RXRa; PBS pH 7.4, 2% milk, 0.02% Triton X-100, 1 mM DTT, BSA, 0.4 mg/ml salmon testes DNA; details: tags: His kept;His cleaved; copies: 1;1; label: surface-attached array probe
VDR:RXRa = VDR:RXRa (Homo sapiens, UniProt P11473;P19793 full;full); assay: no ligand; PBM; 270 nM : 90 nM RXRa; PBS pH 7.4, 2% milk, 0.02% Triton X-100, 1 mM DTT, BSA, 0.4 mg/ml salmon testes DNA; details: tags: His kept;His cleaved; copies: 1;1; label: surface-attached array probe
Outline: (§1)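 The probes on custom Agilent 4×180K protein-binding microarrays were double-stranded, with 34-nt variable regions bearing direct-repeat seeds, single-nucleotide variants, half-site ablations and random human genomic background sequences. Incubation lasted 1 h with ligand-free nuclear receptor dimers in PBS pH 7.4, 2% milk, 0.02% Triton X-100, 1 mM DTT, 0.2 mg/mL BSA and 0.4 mg/ml salmon testes DNA. Antibodies against each partner (one per run) detected bound dimers, and fluorescence scans were regression-normalized. Binding z-scores take the random background probes as reference.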

RARb:RXRa = RARb:RXRa (Homo sapiens, UniProt P10826;P19793 full;full); assay: as above; details: tags: His kept;His cleaved; copies: 1;1; label: surface-attached array probe
Outline: as §1

PPARa:RXRa = PPARa:RXRa (Homo sapiens, UniProt Q07869;P19793 full;full); assay: as above; details: tags: GST kept;His cleaved; copies: 1;1; label: surface-attached array probe
Outline: as §1

LXRa:RXRa = LXRa:RXRa (Homo sapiens, UniProt Q13133;P19793 full;full); assay: as above; details: tags: His kept;His cleaved; copies: 1;1; label: surface-attached array probe
Outline: as §1

RARa:RXRa = RARa:RXRa (Homo sapiens, UniProt P10276;P19793 full;full); assay: as above; details: tags: His kept;His cleaved; copies: 1;1; label: surface-attached array probe
Outline: as §1

PXR:RXRa = PXR:RXRa (Homo sapiens, UniProt O75469;P19793 full;full); assay: as above; details: tags: His kept;His cleaved; copies: 1;1; label: surface-attached array probe
Outline: as §1

RARg:RXRa = RARg:RXRa (Homo sapiens, UniProt P13631;P19793 full;full); assay: as above; details: tags: His kept;His cleaved; copies: 1;1; label: surface-attached array probe
Outline: as §1

FXR:RXRa = FXR:RXRa (Homo sapiens, UniProt Q96RI1;P19793 full;full); assay: as above; details: tags: His kept;His cleaved; copies: 1;1; label: surface-attached array probe
Outline: as §1

LXRb:RXRa = LXRb:RXRa (Homo sapiens, UniProt P55055;P19793 full;full); assay: as above; details: tags: His kept;His cleaved; copies: 1;1; label: surface-attached array probe
Outline: as §1

RXRa = RXRa (Homo sapiens, UniProt P19793); assay: no ligand; PBM; 180 nM; PBS pH 7.4, 2% milk, 0.02% Triton X-100, 1 mM DTT, BSA, 0.4 mg/ml salmon testes DNA; details: tags: His cleaved; chain copies: 2; label: surface-attached array probe
THRa:RXRa = THRa:RXRa (Homo sapiens, UniProt P10827;P19793 full;full); assay: no ligand; PBM; 90 nM : 90 nM RXRa; PBS pH 7.4, 2% milk, 0.02% Triton X-100, 1 mM DTT, BSA, 0.4 mg/ml salmon testes DNA; details: tags: His kept;His cleaved; copies: 1;1; label: surface-attached array probe
THRa:RXRa, sequence (P10827 other isoform, or with tags, fused parts or gaps, chain 1 of 2): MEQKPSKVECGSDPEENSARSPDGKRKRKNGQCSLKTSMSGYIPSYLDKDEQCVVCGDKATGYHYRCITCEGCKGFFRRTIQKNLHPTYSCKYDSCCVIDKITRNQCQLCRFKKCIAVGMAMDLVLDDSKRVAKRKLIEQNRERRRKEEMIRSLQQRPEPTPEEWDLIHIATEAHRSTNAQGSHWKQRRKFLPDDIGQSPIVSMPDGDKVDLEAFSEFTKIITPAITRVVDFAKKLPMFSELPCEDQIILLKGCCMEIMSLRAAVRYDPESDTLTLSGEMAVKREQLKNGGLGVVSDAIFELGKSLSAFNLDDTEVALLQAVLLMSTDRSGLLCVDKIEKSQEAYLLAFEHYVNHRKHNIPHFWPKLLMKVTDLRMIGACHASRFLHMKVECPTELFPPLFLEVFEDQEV
THRa:RXRa, sequence (P19793 whole entry, chain 2 of 2): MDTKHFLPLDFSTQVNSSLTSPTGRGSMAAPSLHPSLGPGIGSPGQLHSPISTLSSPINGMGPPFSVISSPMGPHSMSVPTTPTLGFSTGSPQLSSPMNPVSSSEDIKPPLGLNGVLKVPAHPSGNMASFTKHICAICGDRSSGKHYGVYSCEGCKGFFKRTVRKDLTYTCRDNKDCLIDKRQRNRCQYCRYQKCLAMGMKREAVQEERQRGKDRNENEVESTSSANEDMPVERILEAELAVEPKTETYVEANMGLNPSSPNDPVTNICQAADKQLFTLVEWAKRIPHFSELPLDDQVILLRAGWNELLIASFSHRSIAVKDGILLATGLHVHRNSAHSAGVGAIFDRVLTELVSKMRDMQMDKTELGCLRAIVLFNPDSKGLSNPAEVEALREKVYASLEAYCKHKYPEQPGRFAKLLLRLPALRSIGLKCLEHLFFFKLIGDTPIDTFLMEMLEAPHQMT

VDR:RXRa, sequence (P11473 whole entry, chain 1 of 2): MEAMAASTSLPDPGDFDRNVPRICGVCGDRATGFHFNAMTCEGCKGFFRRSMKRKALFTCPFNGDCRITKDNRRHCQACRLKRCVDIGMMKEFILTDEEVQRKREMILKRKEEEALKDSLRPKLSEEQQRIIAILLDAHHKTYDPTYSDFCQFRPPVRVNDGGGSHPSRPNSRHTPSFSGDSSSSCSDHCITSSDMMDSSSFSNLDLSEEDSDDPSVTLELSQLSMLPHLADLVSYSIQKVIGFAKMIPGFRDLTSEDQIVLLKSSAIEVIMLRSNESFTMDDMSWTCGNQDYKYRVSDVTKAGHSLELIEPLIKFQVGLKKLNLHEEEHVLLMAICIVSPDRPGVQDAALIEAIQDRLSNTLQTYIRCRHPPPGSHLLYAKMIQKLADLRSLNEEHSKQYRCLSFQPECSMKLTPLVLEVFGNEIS
VDR:RXRa, sequence (P19793 whole entry, chain 2 of 2): as the sequence (P19793 whole entry, chain 2 of 2) above
RARa:RXRa, sequence (P10276 whole entry, chain 1 of 2): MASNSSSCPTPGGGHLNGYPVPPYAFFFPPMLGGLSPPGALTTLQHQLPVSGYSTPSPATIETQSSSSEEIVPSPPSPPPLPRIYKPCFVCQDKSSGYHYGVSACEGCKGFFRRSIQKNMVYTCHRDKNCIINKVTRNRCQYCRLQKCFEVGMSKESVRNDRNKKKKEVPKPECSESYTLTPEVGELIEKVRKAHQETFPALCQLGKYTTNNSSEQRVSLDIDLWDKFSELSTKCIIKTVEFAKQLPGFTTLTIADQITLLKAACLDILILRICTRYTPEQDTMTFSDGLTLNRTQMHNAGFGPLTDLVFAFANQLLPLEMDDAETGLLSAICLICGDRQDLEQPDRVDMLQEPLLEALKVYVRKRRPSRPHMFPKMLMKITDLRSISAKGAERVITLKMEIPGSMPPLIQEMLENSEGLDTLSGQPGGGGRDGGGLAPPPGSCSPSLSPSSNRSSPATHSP
RARa:RXRa, sequence (P19793 whole entry, chain 2 of 2): as the sequence (P19793 whole entry, chain 2 of 2) above
RARg:RXRa, sequence (P13631 whole entry, chain 1 of 2): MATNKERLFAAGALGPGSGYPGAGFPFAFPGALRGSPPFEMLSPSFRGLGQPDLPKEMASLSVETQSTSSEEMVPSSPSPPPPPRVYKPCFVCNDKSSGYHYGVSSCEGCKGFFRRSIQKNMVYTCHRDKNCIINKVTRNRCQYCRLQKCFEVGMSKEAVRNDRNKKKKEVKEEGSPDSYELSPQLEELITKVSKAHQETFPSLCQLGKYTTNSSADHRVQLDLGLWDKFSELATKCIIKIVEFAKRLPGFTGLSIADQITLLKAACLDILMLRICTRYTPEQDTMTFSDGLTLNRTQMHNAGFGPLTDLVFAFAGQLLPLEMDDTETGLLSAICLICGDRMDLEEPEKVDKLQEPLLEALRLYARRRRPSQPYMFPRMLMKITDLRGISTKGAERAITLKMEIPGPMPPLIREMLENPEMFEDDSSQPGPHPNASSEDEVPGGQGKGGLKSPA
RARg:RXRa, sequence (P19793 whole entry, chain 2 of 2): as the sequence (P19793 whole entry, chain 2 of 2) above
PXR:RXRa, sequence (O75469 whole entry, chain 1 of 2): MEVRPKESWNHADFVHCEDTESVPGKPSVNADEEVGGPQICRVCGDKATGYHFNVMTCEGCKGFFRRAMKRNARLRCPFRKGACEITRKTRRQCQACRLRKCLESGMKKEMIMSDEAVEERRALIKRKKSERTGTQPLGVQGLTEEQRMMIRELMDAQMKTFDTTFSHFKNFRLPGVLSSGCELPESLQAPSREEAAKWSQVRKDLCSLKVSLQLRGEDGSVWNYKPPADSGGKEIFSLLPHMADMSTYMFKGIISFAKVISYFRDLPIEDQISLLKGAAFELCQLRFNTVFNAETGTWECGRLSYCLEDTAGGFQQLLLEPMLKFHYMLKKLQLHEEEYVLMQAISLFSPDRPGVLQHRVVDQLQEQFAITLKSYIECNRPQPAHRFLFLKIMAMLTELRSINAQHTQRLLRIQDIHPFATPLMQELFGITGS
PXR:RXRa, sequence (P19793 whole entry, chain 2 of 2): as the sequence (P19793 whole entry, chain 2 of 2) above
RXRa, sequence (P19793 whole entry): as the sequence (P19793 whole entry, chain 2 of 2) above

| Binder | binding signal (PPARg:RXRa) | binding signal (VDR:RXRa) | binding signal (RARb:RXRa) | binding signal (PPARa:RXRa) | binding signal (LXRa:RXRa) | binding signal (RARa:RXRa) | binding signal (PXR:RXRa) | binding signal (RARg:RXRa) | binding signal (FXR:RXRa) | binding signal (LXRb:RXRa) | binding signal (RXRa) | binding signal (THRa:RXRa) |
| --- | --- | --- | --- | --- | --- | --- | --- | --- | --- | --- | --- | --- |
| NRC3_wobSeed45_DR1_A20C_o1 (dsDNA) DNA 1: GCTGTCAAAGTTCAAAGGTCACGTAAGTATCCACACGCGATTGACAGCGTAGAATGAAGG DNA 2: CCTTCATTCTACGCTGTCAATCGCGTGTGGATACTTACGTGACCTTTGAACTTTGACAGC | 11.8 PBM z-score against 500 random probes | 7.65 PBM z-score against 500 random probes | 6.42 PBM z-score against 500 random probes | 7.56 PBM z-score against 500 random probes | 8.34 PBM z-score against 500 random probes | 9.47 PBM z-score against 500 random probes | 8.16 PBM z-score against 500 random probes | 9.56 PBM z-score against 500 random probes | 9.44 PBM z-score against 500 random probes | 7.9 PBM z-score against 500 random probes | 11 PBM z-score against 500 random probes | 5.33 PBM z-score against 500 random probes |
| NRC3_wobSeed42_DR1_C19T_o1 (dsDNA) DNA 1: GCTATACAGGGTCAAAGGTCAGAGTACGAATGTCGAGCGATTGACAGCGTAGAATGAAGG DNA 2: CCTTCATTCTACGCTGTCAATCGCTCGACATTCGTACTCTGACCTTTGACCCTGTATAGC | 12.3 PBM z-score against 500 random probes | 7.15 PBM z-score against 500 random probes | 5.62 PBM z-score against 500 random probes | 7.46 PBM z-score against 500 random probes | 7.52 PBM z-score against 500 random probes | 9.11 PBM z-score against 500 random probes | 7.29 PBM z-score against 500 random probes | 8.67 PBM z-score against 500 random probes | 8.5 PBM z-score against 500 random probes | 7.29 PBM z-score against 500 random probes | 10.7 PBM z-score against 500 random probes | 4.83 PBM z-score against 500 random probes |
| NRC3_wobSeed27_DR1_A12T_o1 (dsDNA) DNA 1: GCACTCGGAGGTCAAAGGTCAGAGCTACGCCAGTGAGCGATTGACAGCGTAGAATGAAGG DNA 2: CCTTCATTCTACGCTGTCAATCGCTCACTGGCGTAGCTCTGACCTTTGACCTCCGAGTGC | 11.6 PBM z-score against 500 random probes | 7.02 PBM z-score against 500 random probes | 5.85 PBM z-score against 500 random probes | 7.2 PBM z-score against 500 random probes | 7.5 PBM z-score against 500 random probes | 9.37 PBM z-score against 500 random probes | 7.52 PBM z-score against 500 random probes | 9.09 PBM z-score against 500 random probes | 8.54 PBM z-score against 500 random probes | 6.9 PBM z-score against 500 random probes | 10.9 PBM z-score against 500 random probes | 4.83 PBM z-score against 500 random probes |

— publication PMC6555819, “Comprehensive study of nuclear receptor DNA binding provides a revised framework for understanding receptor specificity”
